Data set [1] has as its target T1, Ec-MscL (mechanosensitive channel of large conductance) (Escherichia coli, UniProt P0A742).
T1 construct: wild type, recombinant, detergent-solubilized channel
The experiment in a line: MicroScale Thermophoresis; supported by patch clamp activation at […] DHS and MTS-PEG5000 competition on cysteine mutants. In kind it is binding. (In MST a laser heats a spot of the sample, and binding alters the fluorescence response.)

The target of data set [2] is T2, Ec-MscL (mechanosensitive channel of large conductance) (Escherichia coli, UniProt P0A742, K55T).
T2 construct: recombinant, detergent-solubilized channel
Nature of the data set: MicroScale Thermophoresis, labeled purified protein in DDM (main text prints […]). In kind it is binding.

Data set [3] deals with the molecule itself. The experiment in a line: non-reducing SDS-PAGE with Western blot (dimer band); purified His-tagged cysteine mutants, 5 ug in 50 mM KPi pH 7.5, 150 mM NaCl, 4 mM DM, 22°C; nonreducing sample buffer with iodoacetamide; blot with Penta.His; samples of the MTS-PEG5000 versus DHS competition experiment, mock lanes included. Background: A western blot detects proteins with antibodies after separation by electrophoresis.

T1 sequence (P0A742 whole entry): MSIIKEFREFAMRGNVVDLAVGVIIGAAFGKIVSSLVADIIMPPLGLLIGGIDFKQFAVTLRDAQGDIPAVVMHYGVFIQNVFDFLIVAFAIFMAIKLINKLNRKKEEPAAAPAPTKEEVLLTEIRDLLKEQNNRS
T2 sequence (P0A742 whole entry K55T): as the sequence (P0A742 whole entry) above, with K55T counted along it

Regarding `CN[C@@H]1[C@H](O[C@H]2[C@H](O[C@H]3[C@H](O)[C@@H](O)[C@H](NC(=N)N)[C@@H](O)[C@@H]3NC(=N)N)O[C@@H](C)[C@]2(O)CO)O[C@@H](CO)[C@H](O)[C@H]1O` [DHS, dihydrostreptomycin], the Kd worked out at 9.81 ± 0.13 mM in data set [1] and 0.601 ± 0.0551 mM in data set [2].

B1: A114C Ec-MscL (Escherichia coli mechanosensitive channel of large conductance, cysteine mutant) (natural protein, UniProt P0A742 1-136, looked up)
chain: MSIIKEFREFAMRGNVVDLAVGVIIGAAFGKIVSSLVADIIMPPLGLLIGGIDFKQFAVTLRDAQGDIPAVVMHYGVFIQNVFDFLIVAFAIFMAIKLINKLNRKKEEPAAAPCPTKEEVLLTEIRDLLKEQNNRS
notes: MscL, mechanosensitive channel of large conductance, Escherichia coli (Ec-MscL); single cysteine mutant; source: E. coli PB104 (pB10) or PB116 (pET21a), purified (Talon resin, in DM); not shown: His6, C-terminal, kept
B1: in data set [3], the binding result was “binds”.

B2: K117C Ec-MscL (Escherichia coli mechanosensitive channel of large conductance, cysteine mutant) (natural protein, UniProt P0A742 1-136, looked up)
chain: MSIIKEFREFAMRGNVVDLAVGVIIGAAFGKIVSSLVADIIMPPLGLLIGGIDFKQFAVTLRDAQGDIPAVVMHYGVFIQNVFDFLIVAFAIFMAIKLINKLNRKKEEPAAAPAPTCEEVLLTEIRDLLKEQNNRS
notes: as for B1
As to B2, the binding result in data set [3] is given as “binds”.

B3: T116C Ec-MscL (Escherichia coli mechanosensitive channel of large conductance, cysteine mutant) (natural protein, UniProt P0A742 1-136, looked up)
chain: MSIIKEFREFAMRGNVVDLAVGVIIGAAFGKIVSSLVADIIMPPLGLLIGGIDFKQFAVTLRDAQGDIPAVVMHYGVFIQNVFDFLIVAFAIFMAIKLINKLNRKKEEPAAAPAPCKEEVLLTEIRDLLKEQNNRS
notes: as for B1
Turning to B3, the binding result in data set [3] is reported as “binds”.

By Kd is commonly meant the concentration at which binding is half-saturated. Read a low Kd as higher affinity.

The values are drawn from PMC4900634 (PLoS Biology, 2016).
